Columns and labels:
[1] = biological target: human GIPR (human) (UniProt P48546)
[2] = biological target: Xenopus GCRP receptor (Xenopus)
[3] = biological target: chicken GCRP receptor (chicken)

Chain of Human GCG (peptide) (peptide): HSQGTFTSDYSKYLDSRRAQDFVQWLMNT
Chain of Human GLP1 (peptide) (peptide): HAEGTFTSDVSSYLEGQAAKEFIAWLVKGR
Chain of human GIPR (human) (P48546 22-466): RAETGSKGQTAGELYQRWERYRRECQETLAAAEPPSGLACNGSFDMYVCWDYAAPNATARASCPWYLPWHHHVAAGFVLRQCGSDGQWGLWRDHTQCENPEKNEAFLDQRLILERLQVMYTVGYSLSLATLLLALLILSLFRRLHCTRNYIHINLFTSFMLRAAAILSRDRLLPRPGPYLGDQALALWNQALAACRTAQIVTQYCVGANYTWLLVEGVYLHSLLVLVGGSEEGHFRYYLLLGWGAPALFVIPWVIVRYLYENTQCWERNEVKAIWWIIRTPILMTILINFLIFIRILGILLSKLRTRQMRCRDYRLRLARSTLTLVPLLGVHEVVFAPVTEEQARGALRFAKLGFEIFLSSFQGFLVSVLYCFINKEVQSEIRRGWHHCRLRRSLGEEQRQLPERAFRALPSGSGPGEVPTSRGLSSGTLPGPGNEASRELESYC

CRE-luc reporter, HEK293T cells with the receptor: EC50 [2] | CRE-luc reporter, HEK293T cells with the receptor: Emax (fold induction) [2] | CRE-luc reporter, HEK293T cells with the receptor: EC50 [3] | CRE-luc reporter, HEK293T cells with the receptor: Emax (fold induction) [3] | Substance | CRE-luc reporter, HEK293T cells with the receptor: EC50 [1]
– | – | – | – | Exendin-4 (peptide) | 100 nM
49.4 nM | 32.7 | 35.3 nM | 6.3 | Human GCG (peptide) | –
391 nM | 35 | 120 nM | 6.24 | Human GLP1 (peptide) | –

From PMC3679108, “A Novel Glucagon-Related Peptide (GCRP) and Its Receptor GCRPR Account for Coevolution of Their Family Members in Vertebrates” (PLoS ONE, 2013)
